Source: US20190300590A1 (PROTAGONIST THERAPEUTICS, published 2019)
Bridges are numbered along the chain shown (N, C = ends). [ ]: non-standard residue; d: D form. Phe(3,4-(OMe)2) = COc1ccc(C[C@H](N)C(=O)O)cc1OC; Phe(4-CF3) = N[C@@H](Cc1ccc(C(F)(F)F)cc1)C(=O)O; 2Nal = N[C@@H](Cc1ccc2ccccc2c1)C(=O)O; Ala(cPent) = N[C@@H](CC1CCCC1)C(=O)O; AEF = NCCOc1ccc(C[C@H](N)C(=O)O)cc1; Cav = NC(N)=NOCC[C@H](N)C(=O)O; hLeu = CC(C)CC[C@H](N)C(=O)O; αMeK = C[C@](N)(CCCCN)C(=O)O; Orn = NCCC[C@H](N)C(=O)O; Abu = CC[C@H](N)C(=O)O; PEG1 = NCCOCCC(=O)O; AEA = NCCOCC(=O)O

T1: IL23R_huFC (human, UniProt Q5VWK5 24-353)
T1 sequence (looked up): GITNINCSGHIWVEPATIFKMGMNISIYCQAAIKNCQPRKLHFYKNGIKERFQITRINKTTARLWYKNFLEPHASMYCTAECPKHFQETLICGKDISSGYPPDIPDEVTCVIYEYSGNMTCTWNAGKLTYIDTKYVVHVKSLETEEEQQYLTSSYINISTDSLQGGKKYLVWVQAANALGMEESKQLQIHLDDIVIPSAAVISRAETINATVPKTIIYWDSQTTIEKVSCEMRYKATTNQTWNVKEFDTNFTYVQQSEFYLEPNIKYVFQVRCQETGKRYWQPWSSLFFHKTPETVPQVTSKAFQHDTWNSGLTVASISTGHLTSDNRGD

T2: IL23R_huFC (human, UniProt Q5VWK5 24-353)
T2 sequence (looked up): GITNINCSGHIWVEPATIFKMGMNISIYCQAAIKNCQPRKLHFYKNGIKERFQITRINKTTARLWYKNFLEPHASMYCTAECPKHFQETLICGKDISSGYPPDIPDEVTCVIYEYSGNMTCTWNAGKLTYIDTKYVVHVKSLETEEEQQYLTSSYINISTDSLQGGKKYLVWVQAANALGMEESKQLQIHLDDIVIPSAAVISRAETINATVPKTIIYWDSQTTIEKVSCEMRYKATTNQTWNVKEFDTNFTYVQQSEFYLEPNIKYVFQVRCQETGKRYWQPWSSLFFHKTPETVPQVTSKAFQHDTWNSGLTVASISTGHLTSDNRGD


What was measured:
[1] = target: T1, IL23R_huFC; experiment: IL23-IL23R competitive ELISA
[2] = target: T2, IL23R_huFC; experiment: human ELISA vs IL-23

Binder	IC50 [1] [nM]	IC50 [2] [nM]
H-CRTWQCYWRKFG-NH2 (disulfide 1-6 (inferred)) [Hy-CRTWQCYWRKFG-NH2]	< 500	
Ac-CRTWECYWHEYG-NH2 (disulfide 1-6 (inferred)) [Ac-CRTWECYWHEYG-NH2]	< 500	
Ac-CTTWECYWHQFG-NH2 (disulfide 1-6 (inferred)) [Ac-CTTWECYWHQFG-NH2]	< 500	
Ac-CRTWECYWHEFG-NH2 (disulfide 1-6 (inferred)) [Ac-CRTWECYWHEFG-NH2]	< 500	
Ac-CRTWQCYWHEYG-NH2 (disulfide 1-6 (inferred)) [Ac-CRTWQCYWHEYG-NH2]	< 500	
Ac-CATWQCYWHEYG-NH2 (disulfide 1-6 (inferred)) [Ac-CATWQCYWHEYG-NH2]	< 500	
Ac-CTTWECYWHEYG-NH2 (disulfide 1-6 (inferred)) [Ac-CTTWECYWHEYG-NH2]	< 500	
Ac-CTTWECYWHEFG-NH2 (disulfide 1-6 (inferred)) [Ac-CTTWECYWHEFG-NH2]	< 500	
H-CSNWVCYWHTYG-NH2 (disulfide 1-6 (inferred)) [Hy-CSNWVCYWHTYG-NH2]	< 500	
Ac-CADWVCYWHTFGA[dK]-OH (disulfide 1-6 (inferred)) [Ac-CADWVCYWHTFGA-[(D)Lys]-OH]	< 500	
Ac-CADWVCYWHTFG-OH (disulfide 1-6 (inferred)) [Ac-CADWVCYWHTFG-OH]	< 500	
Ac-CKTWTCYWHEFG-NH2 (disulfide 1-6 (inferred)) [Ac-CKTWTCYWHEFG-NH2]	< 500	
Ac-CADWVCYWHRHADRVK-NH2 (disulfide 1-6 (inferred)) [Ac-CADWVCYWHRHADRVK-NH2]	< 500	
Ac-CTTWTCYWHQYG-NH2 (disulfide 1-6 (inferred)) [Ac-CTTWTCYWHQYG-NH2]	< 500	
Ac-CADWVCYWHTYG-NH2 (disulfide 1-6 (inferred)) [Ac-CADWVCYWHTYG-NH2]	< 500	
Ac-CTDWVCYWHTFG-NH2 (disulfide 1-6 (inferred)) [Ac-CTDWVCYWHTFG-NH2]	< 500	
CQTWQCYWRXNGXK (Ac-; [Dapa]; [AEA]; [(D)-Lys]; -NH2; disulfide) [Ac-CQTWQCYWR-[Dapa]-NG-[AEA]-[(D)-Lys]-NH2]	< 500	
Ac-CQTWQCYWR[Orn]NG[AEA][dK]-NH2 (disulfide 1-6; SMILES CC(=O)N[C@H]1CSSC[C@@H](C(=O)N[C@@H](Cc2ccc(O)cc2)C(=O)N[C@@H](Cc2c[nH]c3ccccc23)C(=O)N[C@@H](CCCNC(=N)N)C(=O)N[C@@H](CCCN)C(=O)N[C@@H](CC(N)=O)C(=O)NCC(=O)NCCOCC(=O)N[C@H](CCCCN)C(N)=O)NC(=O)[C@H](CCC(N)=O)NC(=O)[C@H](Cc2c[nH]c3ccccc23)NC(=O)[C@H]([C@@H](C)O)NC(=O)[C@H](CCC(N)=O)NC1=O) [Ac-CQTWQCYWR-[Orn]-NG-[AEA]-[(D)-Lys]-NH2]	< 500	
Ac-CEDWKCYWHKYG-NH2 (disulfide 1-6 (inferred)) [Ac-CEDWKCYWHKYG-NH2]	< 500	
CADWVCYWHTFGAK (Ac-; [β-Ala]; [(D)Lys]; disulfide) [Ac-CADWVCYWHTFG-[β-Ala]-[(D)Lys]-OH]	< 500	
Ac-CADWVCYWHTFGP[dK]-OH (disulfide 1-6 (inferred)) [Ac-CADWVCYWHTFGP-[(D)Lys]-OH]	< 500	

Binder	IC50 [1] [nM]	IC50 [2] [nM]
Ac-CADWVCYWHTFGAA[dK]-OH (disulfide 1-6 (inferred)) [Ac-CADWVCYWHTFGAA[(D)Lys]-OH]	< 500	
Ac-CADWVCYWHTFGER-NH2 (disulfide 1-6 (inferred)) [Ac-CADWVCYWHTFGER-NH2]	< 500	
Ac-CADWVCYWHTHGER-NH2 (disulfide 1-6 (inferred)) [Ac-CADWVCYWHTHGER-NH2]	< 500	
Ac-CRTWECYWHEQS-NH2 (disulfide 1-6 (inferred)) [Ac-CRTWECYWHEQS-NH2]	< 500	
Ac-CQTWQCYW[Cav]ENG-NH2 (disulfide 1-6 (inferred)) [Ac-CQTWQCYW-[Cav]-ENG-NH2]	< 500	
Ac-[Abu]QT[Phe(3,4-(OMe)2)]QC[AEF][2Nal][αMeK]ENG-NH2 (thioether 1-6) [Ac-Cyclo-[[Abu]-QT-[Phe(3,4-OMe)]-QC]-[Phe[4-(2-aminoethoxy)]]-[2-Nal]-[α-MeLys]-ENG-NH2]		~3000
Ac-[Abu]QT[Phe(4-CF3)]QC[AEF][2Nal][αMeK]ENG-NH2 (thioether 1-6) [Ac-Cyclo-[[Abu]-QT-[Phe(4-CF3)]-QC]-[Phe[4-(2-aminoethoxy)]]-[2-Nal]-[α-MeLys]-ENG-NH2]		~3000
H-CRDWQCYWHKFG-NH2 (disulfide 1-6 (inferred)) [Hy-CRDWQCYWHKFG-NH2]	< 500	
Ac-CQTWECYWHLYG-NH2 (disulfide 1-6 (inferred)) [Ac-CQTWECYWHLYG-NH2]	< 500	
Ac-CQTWQCYW[Ala(cPent)]ENG-NH2 (disulfide 1-6 (inferred)) [Ac-CQTWQCYW-[Cpa]-ENG-NH2]	< 500	
Ac-CQTWQCYWRTNG[AEA][dK]-NH2 (disulfide 1-6; SMILES CC(=O)N[C@H]1CSSC[C@@H](C(=O)N[C@@H](Cc2ccc(O)cc2)C(=O)N[C@@H](Cc2c[nH]c3ccccc23)C(=O)N[C@@H](CCCNC(=N)N)C(=O)N[C@H](C(=O)N[C@@H](CC(N)=O)C(=O)NCC(=O)NCCOCC(=O)N[C@H](CCCCN)C(N)=O)[C@@H](C)O)NC(=O)[C@H](CCC(N)=O)NC(=O)[C@H](Cc2c[nH]c3ccccc23)NC(=O)[C@H]([C@@H](C)O)NC(=O)[C@H](CCC(N)=O)NC1=O) [Ac-CQTWQCYWRTNG-[AEA]-[(D)-Lys]-NH2]	< 500	
Ac-CQTWVCYWRENG[AEA][dK]-NH2 (disulfide 1-6; SMILES CC(=O)N[C@H]1CSSC[C@@H](C(=O)N[C@@H](Cc2ccc(O)cc2)C(=O)N[C@@H](Cc2c[nH]c3ccccc23)C(=O)N[C@@H](CCCNC(=N)N)C(=O)N[C@@H](CCC(=O)O)C(=O)N[C@@H](CC(N)=O)C(=O)NCC(=O)NCCOCC(=O)N[C@H](CCCCN)C(N)=O)NC(=O)[C@H](C(C)C)NC(=O)[C@H](Cc2c[nH]c3ccccc23)NC(=O)[C@H]([C@@H](C)O)NC(=O)[C@H](CCC(N)=O)NC1=O) [Ac-CQTWVCYWRENG-[AEA]-[(D)-Lys]-NH2, listing 1 of 2 here]	< 500	
Ac-CRTWQCYWRKFG[AEA][dK]-NH2 (disulfide 1-6 (inferred)) [Ac-CRTWQCYWRKFG-[AEA]-[(D)-Lys]-NH2]	< 500	
Ac-CQTWVCYWRENG[AEA][dK]-NH2 (disulfide 1-6; SMILES CC(=O)N[C@H]1CSSC[C@@H](C(=O)N[C@@H](Cc2ccc(O)cc2)C(=O)N[C@@H](Cc2c[nH]c3ccccc23)C(=O)N[C@@H](CCCNC(=N)N)C(=O)N[C@@H](CCC(=O)O)C(=O)N[C@@H](CC(N)=O)C(=O)NCC(=O)NCCOCC(=O)N[C@H](CCCCN)C(N)=O)NC(=O)[C@H](C(C)C)NC(=O)[C@H](Cc2c[nH]c3ccccc23)NC(=O)[C@H]([C@@H](C)O)NC(=O)[C@H](CCC(N)=O)NC1=O) [Ac-CQTWVCYWRENG-[AEA]-[(D)-Lys]-NH2, listing 2 of 2 here]	< 500	
Ac-CRDWQCYWHKFG[PEG1][dK]-OH (disulfide 1-6; SMILES CC(=O)N[C@H]1CSSC[C@@H](C(=O)N[C@@H](Cc2ccc(O)cc2)C(=O)N[C@@H](Cc2c[nH]c3ccccc23)C(=O)N[C@@H](Cc2c[nH]cn2)C(=O)N[C@@H](CCCCN)C(=O)N[C@@H](Cc2ccccc2)C(=O)NCC(=O)NCCOCCC(=O)N[C@H](CCCCN)C(=O)O)NC(=O)[C@H](CCC(N)=O)NC(=O)[C@H](Cc2c[nH]c3ccccc23)NC(=O)[C@H](CC(=O)O)NC(=O)[C@H](CCCNC(=N)N)NC1=O) [Ac-CRDWQCYWHKFG-[AEP]-[(D)Lys]-OH]	< 500	
Ac-DTPRCRTWECYWHTFG-NH2 (disulfide 5-10 (inferred)) [Ac-DTPRCRTWECYWHTFG-NH2]	< 500	
Ac-CQTWQCYWRENG-NH2 (disulfide 1-6 (inferred)) [Ac-CQTWQCYWRENG-NH2]	< 500	
Ac-CQTWQCYWLENG-NH2 (disulfide 1-6 (inferred)) [Ac-CQTWQCYWLENG-NH2]	< 500	
Ac-CQTWQCYW[hLeu]ENG-NH2 (disulfide 1-6 (inferred)) [Ac-CQTWQCYW[-hLeu]-ENG-NH2]	< 500	
Ac-CQTWQCYWRK(Ac)NG-NH2 (disulfide 1-6 (inferred)) [Ac-CQTWQCYWR-[K-Ac]-NG-NH2]	< 500	
